We go through 31 molecules from US20210388087A1.

Residue numbers refer to the chain shown, from its start. Names may count otherwise.

B1: H183/L072 VH D52aP (antibody, name in Kabat numbering, V domains shown)
VH: QVQLVESGGGLVQPGRSLRLSCAASGFTFSNAWMHWVRQAPGKGLEWVAQIKPKGNAYAAYYAPSVKGRFTISRDDSKNSIYLQMNSLKTEDTAVYYCHYVHYASASTVLPAFGVDAWGQGTTVTVSS
VL: DIVMTQSPLSLPVTPGEPASISCQASQELVHMNRNTYLHWYQQKPGQAPRLLIYKVSNRFPGVPDRFSGSGSGTDFTLKISRVEAEDVGVYYCAQGTSVPFTFGQGTKLEIK
B2: H183/L072 VH F29Q (antibody, name in Kabat numbering, V domains shown)
VH: B1 VH with F29Q, P53D
VL: B1 VL
B3: H183/L072 VH D52aQ (antibody, name in Kabat numbering, V domains shown)
VH: B1 VH with P53Q
VL: B1 VL
B4: H183/L072 VH W33Q (antibody, name in Kabat numbering, V domains shown)
VH: B1 VH with W33Q, P53D
VL: B1 VL
B5: H183/L072 VH F29G (antibody, name in Kabat numbering, V domains shown)
VH: B1 VH with F29G, P53D
VL: B1 VL
B6: H183/L072 VH M34G (antibody, name in Kabat numbering, V domains shown)
VH: B1 VH with M34G, P53D
VL: B1 VL
B7: H183/L072 VH M34N (antibody, name in Kabat numbering, V domains shown)
VH: B1 VH with M34N, P53D
VL: B1 VL
B8: H183/L072 VH K52V (antibody, name in Kabat numbering, V domains shown)
VH: B1 VH with K52V, P53D
VL: B1 VL
B9: H183/L072 VH H35Q (antibody, name in Kabat numbering, V domains shown)
VH: B1 VH with H35Q, P53D
VL: B1 VL
B10: H183/L072 VH N53P (antibody, name in Kabat numbering, V domains shown)
VH: B1 VH with P53D, N56P
VL: B1 VL
B11: H183/L072 VH N53V (antibody, name in Kabat numbering, V domains shown)
VH: B1 VH with P53D, N56V
VL: B1 VL
B12: H183/L072 VH W33V (antibody, name in Kabat numbering, V domains shown)
VH: B1 VH with W33V, P53D
VL: B1 VL
B13: H183/L072 VH W33N (antibody, name in Kabat numbering, V domains shown)
VH: B1 VH with W33N, P53D
VL: B1 VL
B14: H183/L072 VH Y55V (antibody, name in Kabat numbering, V domains shown)
VH: B1 VH with P53D, Y58V
VL: B1 VL
B15: H183/L072 VH I51Q (antibody, name in Kabat numbering, V domains shown)
VH: B1 VH with I51Q, P53D
VL: B1 VL
B16: H183/L072 VH Q50G (antibody, name in Kabat numbering, V domains shown)
VH: B1 VH with Q50G, P53D
VL: B1 VL
B17: H183/L072 VH Y55P (antibody, name in Kabat numbering, V domains shown)
VH: B1 VH with P53D, Y58P
VL: B1 VL
B18: H183/L072 VH H35G (antibody, name in Kabat numbering, V domains shown)
VH: B1 VH with H35G, P53D
VL: B1 VL
B19: H183/L072 VH D52aN (antibody, name in Kabat numbering, V domains shown)
VH: B1 VH with P53N
VL: B1 VL
B20: H183/L072 VH D52aG (antibody, name in Kabat numbering, V domains shown)
VH: B1 VH with P53G
VL: B1 VL
B21: H183/L072 VH N53Q (antibody, name in Kabat numbering, V domains shown)
VH: B1 VH with P53D, N56Q
VL: B1 VL
B22: H183/L072 VH T28N (antibody, name in Kabat numbering, V domains shown)
VH: B1 VH with T28N, P53D
VL: B1 VL
B23: H183/L072 VH M34Q (antibody, name in Kabat numbering, V domains shown)
VH: B1 VH with M34Q, P53D
VL: B1 VL
B24: H183/L072 VH F29N (antibody, name in Kabat numbering, V domains shown)
VH: B1 VH with F29N, P53D
VL: B1 VL
B25: H183/L072 VH W33G (antibody, name in Kabat numbering, V domains shown)
VH: B1 VH with W33G, P53D
VL: B1 VL
B26: H183/L072 VH G26V (antibody, name in Kabat numbering, V domains shown)
VH: B1 VH with G26V, P53D
VL: B1 VL
B27: H183/L072 VH D52aV (antibody, name in Kabat numbering, V domains shown)
VH: B1 VH with P53V
VL: B1 VL
B28: H183/L072 VH T28S (antibody, name in Kabat numbering, V domains shown)
VH: B1 VH with T28S, P53D
VL: B1 VL
B29: H183/L072 VH K52G (antibody, name in Kabat numbering, V domains shown)
VH: B1 VH with K52G, P53D
VL: B1 VL
B30: H183/L072 VH A54P (antibody, name in Kabat numbering, V domains shown)
VH: B1 VH with P53D, A57P
VL: B1 VL
B31: H183/L072 VH N53G (antibody, name in Kabat numbering, V domains shown)
VH: B1 VH with P53D, N56G
VL: B1 VL

The target in this experiment is Human CD137 ECD (human). The experiment can be described thus: single mutant vs template dBBDu183H.
Human CD137 ECD (human), sequence (chain, as listed by the source limits assumed): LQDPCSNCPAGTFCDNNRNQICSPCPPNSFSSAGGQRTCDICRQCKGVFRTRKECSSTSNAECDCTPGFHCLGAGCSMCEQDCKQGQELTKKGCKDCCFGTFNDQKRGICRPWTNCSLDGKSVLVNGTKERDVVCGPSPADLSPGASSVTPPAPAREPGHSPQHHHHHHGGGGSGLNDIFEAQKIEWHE
In the case of B1, the fold change of affinity was 0 fold.

Regarding B2, the fold change of affinity turned out to be 0 fold.

On to B3, for which the fold change of affinity was 0 fold.

With B4, the fold change of affinity was determined as 0 fold.

Take B5: the fold change of affinity worked out at 0 fold.

Regarding B6, the fold change of affinity was found to be 0 fold.

For B7, the fold change of affinity is 0 fold.

B8: the fold change of affinity amounted to 0 fold.

Take B9: the fold change of affinity was 0 fold.

Regarding B10, the fold change of affinity was 0 fold.

On to B11, for which the fold change of affinity turned out to be 0 fold.

For B12, the fold change of affinity came to 0 fold.

In the case of B13, the fold change of affinity is 0 fold.

As for B14, the fold change of affinity came to 0 fold.

Consider B15, for which the fold change of affinity was determined as 0 fold.

With B16, the fold change of affinity was 0 fold.

With B17, the fold change of affinity was found to be 0 fold.

With B18, the fold change of affinity was 0 fold.

Take B19: the fold change of affinity turned out to be 0 fold.

B20: the fold change of affinity is 0 fold.

In the case of B21, the fold change of affinity turned out to be 0 fold.

Turning to B22, the fold change of affinity worked out at 0 fold.

For the molecule B23, the fold change of affinity came out at 0 fold.

As to B24, the fold change of affinity turned out to be 0 fold.

For the molecule B25, the fold change of affinity was 0 fold.

Turning to B26, the fold change of affinity came to 0 fold.

Take B27: the fold change of affinity amounted to 0 fold.

On to B28, for which the fold change of affinity was determined as 0 fold.

Consider B29, for which the fold change of affinity came to 0 fold.

For B30, the fold change of affinity was 0 fold.

For the molecule B31, the fold change of affinity is 0 fold.
